Source: US20190263931A1 (IMMUNOMETABOLISM DEVELOPMENT, published 2019)

T1: human MCT1 (monocarboxylate transporter 1, SLC16A1) (human, UniProt P53985 1-500)
T1 construct: Multipass membrane transporter; also called human MCT1 protein
T1 sequence: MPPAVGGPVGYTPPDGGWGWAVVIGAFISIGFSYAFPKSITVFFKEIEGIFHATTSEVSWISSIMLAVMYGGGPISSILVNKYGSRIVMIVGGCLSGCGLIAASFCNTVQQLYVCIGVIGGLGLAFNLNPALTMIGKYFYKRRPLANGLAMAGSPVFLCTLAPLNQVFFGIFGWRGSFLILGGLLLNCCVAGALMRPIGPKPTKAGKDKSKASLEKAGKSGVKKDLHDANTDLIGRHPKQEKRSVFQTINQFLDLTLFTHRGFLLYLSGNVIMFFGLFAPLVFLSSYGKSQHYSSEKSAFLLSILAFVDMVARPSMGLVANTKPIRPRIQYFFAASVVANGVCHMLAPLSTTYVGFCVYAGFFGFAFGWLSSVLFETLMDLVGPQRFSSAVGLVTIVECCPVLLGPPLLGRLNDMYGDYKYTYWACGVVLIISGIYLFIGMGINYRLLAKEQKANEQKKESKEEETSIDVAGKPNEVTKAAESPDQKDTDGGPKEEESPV

T2: rat MCT1 (rat, UniProt P53987 1-494)
T2 construct: whole, on cells; also called rodent MCT1
T2 sequence (looked up): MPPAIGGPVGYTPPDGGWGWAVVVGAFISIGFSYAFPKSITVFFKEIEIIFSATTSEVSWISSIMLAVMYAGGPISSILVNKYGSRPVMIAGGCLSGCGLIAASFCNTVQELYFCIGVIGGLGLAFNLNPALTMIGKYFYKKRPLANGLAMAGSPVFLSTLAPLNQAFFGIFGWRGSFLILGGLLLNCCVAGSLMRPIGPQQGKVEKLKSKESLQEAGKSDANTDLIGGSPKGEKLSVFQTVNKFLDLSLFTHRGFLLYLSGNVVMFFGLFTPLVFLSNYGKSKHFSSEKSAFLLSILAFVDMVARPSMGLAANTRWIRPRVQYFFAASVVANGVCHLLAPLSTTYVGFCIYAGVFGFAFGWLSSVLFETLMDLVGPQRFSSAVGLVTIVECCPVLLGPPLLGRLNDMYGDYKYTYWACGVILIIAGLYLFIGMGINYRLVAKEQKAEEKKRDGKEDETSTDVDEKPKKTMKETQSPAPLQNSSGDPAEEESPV

B1: MCT1 Ab1 (antibody, V domains shown)
VH: QVQLKATGPGLVQPTQTLSITCTVSGFSLTNYHLQWVRQTPGKGLEWMGFIRSSGNTEYNSEFKSRLSISRDTSKNQVFLKMNSLKTDDTGVYYCARNSWYHGTYYSPGYYVMDAWGQGASVTVSS
VL: NIHLTQSPSLLSASVGDRVTLSCKGSQNINNYLAWFQQKFGETPKLLIYNRHNLQTGIPSRFSGSGSGTDYTLTINSLQPEDVATYFCYQYSDGYTFGAGTKLELK
notes: also called INX310; Rat Anti-MCT1 antibody
B2: LM-187 (antibody, V domains shown)
VH: AVTLDESGGGLQTPGGLVSLVCKASGFGFTNYEIHWVRQAPGKGLEWVGFVSSGGAYADYAPAVKGRATITRDNGQSTVRLQLVNLRAEDTGTYYCTRAPCGSWCGWGYTGVDNIDAWGHGTEVIVSS
VL: ALTQPSSVSANPGGIVKITCSGGGRGSHYGWYQQKSPGSAPVTLIYANNQRPSDIPSRFSGSESGSTATLTITGVQAEDEAVYFCGGYDSGATFGAGTTLTVL

What was measured:
[1] = biological target: T1, human MCT1 (monocarboxylate transporter …); assay: Kinetic Exclusion Assay (KinExA)
rat MCT1 = biological target: T2, rat MCT1; assay: flow cytometry, rat PBMC (live gate), resting and stimulated
[2] = biological target: T1, human MCT1 (monocarboxylate transporter …); assay: flow cytometry, MFI on 293T WT (MCT1+ 293) cells, full Mabs

Kd [1] | binding result (rat MCT1) | binding result [2] | Binder
6.3 nM | no binding |  | B1
 |  | no binding | B2
